According to paper PMC4941327:

Molecular target: mAb04-MICA antibody fusion protein (human) (UniProt Q29983)
Assay: SPR; Biacore X100; mAb04-MICA captured on a CM5 chip by anti-human IgG (Fc) antibody; soluble NKG2D injected at 7.8125-250 nM; HBS-EP pH 7.4; bivalent analyte model (the results say 2:1 binding model)

Chain of UniProt Q29983 (Q29983 whole entry, looked up, the tested form may be a part): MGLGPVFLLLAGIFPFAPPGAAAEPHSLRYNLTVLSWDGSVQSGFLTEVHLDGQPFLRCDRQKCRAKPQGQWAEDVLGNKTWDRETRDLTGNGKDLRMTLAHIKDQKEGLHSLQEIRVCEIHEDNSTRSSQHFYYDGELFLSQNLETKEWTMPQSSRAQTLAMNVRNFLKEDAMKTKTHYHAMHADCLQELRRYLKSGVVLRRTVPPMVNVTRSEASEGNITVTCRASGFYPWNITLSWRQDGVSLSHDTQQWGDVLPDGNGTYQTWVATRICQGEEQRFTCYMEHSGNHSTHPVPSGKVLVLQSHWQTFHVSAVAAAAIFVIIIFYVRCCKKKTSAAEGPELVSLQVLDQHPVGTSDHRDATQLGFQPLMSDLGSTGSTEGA

## soluble recombinant NKG2D (from UniProt P26718 1-216) (receptor)
  Kd: 710 nM
  koff: 188 s⁻¹
  kon: 2.65e+08 M⁻¹ s⁻¹
